# In US20250032576A1, “CNP Therapy” (BIOMARIN PHARMACEUTICAL INC., priority 2021, published 2025):
# Several values for one entry are separate records, joined by “and”; a condition that tells them apart may be missing. Identical values can stand only once.
# System: NPR2
# Experiment: cGMP catchpoint assay of NPR2 variants in transfected HEK293 cells treated with 20 nM CNP
# Type: cell-based
# Set-up: key to Lable: loss-of-function (LoF); Gain-of-function (GoF)
# Conditions: for average phenotype: cGMP normalized to RedLuciferase and to WT = 1, HEK293, 20 nM CNP, 0.4 nM IBMX, at least 3 repeat experiments with 4 replicates each; for Lable: high-confidence variant class
# Description: Described herein is an in-vitro assay (cGMP) to assess the activities of >260 NPR2 variants. NPR2 protein-altering variants have been identified in the UK Biobank study and described in Estrada et al. (Nat Commun. 2021 12 (1): 2224). NPR2-expression constructs were transfected into HEK293 cells and 3 days later cells were treated with […] IBMX and 20 nM CNP in serum-free DMEM prior to measuring cGMP levels. The cGMP catchpoint ELISA competition assay (Molecular Devices) was used to measure cGMP according to manufacturer recommendations. RedLuc was used as a transfection control (FIG. 8A).
# The NPR2 alpha-fold structure was obtained from a recent alpha-fold publication (Jumper et al., Nature 596:583-589 (2021)). A list of phenotypically characterized “high-confidence” variants was generated (Table 4). Phenotype is calculated by determining levels of cGMP using a standard curve. This value to normalized to RedLuciferase (transfection control). This value is further normalized by setting WT to 1. Average value is calculated from at least 3 repeat experiments with 4 replicates each.
Molecule,average phenotype,Lable
"Arg957Cys: NPR2 protein-altering variant, expression construct transfected into HEK293 cells (protein) RNLTLAVVLPEHNLSYAWAWPRVGPAVALAVEALGRALPVDLRFVSSELEGACSEYLAPLSAVDLKLYHDPDLLLGPGCVYPAASVARFASHWRLPLLTAGAVASGFSAKNDHYRTLVRTGPSAPKLGEFVVTLHGHFNWTARAALLYLDARTDDRPHYFTIEGVFEALQGSNLSVQHQVYAREPGGPEQATHFIRANGRIVYICGPLEMLHEILLQAQRENLTNGDYVFFYLDVFGESLRAGPTRATGRPWQDNRTREQAQALREAFQTVLVITYREPPNPEYQEFQNRLLIRAREDFGVELGPSLMNLIAGCFYDGILLYAEVLNETIQEGGTREDGLRIVEKMQGRRYHGVTGLVVMDKNNDRETDFVLWAMGDLDSGDFQPAAHYSGAEKQIWWTGRPIPWVKGAPPSDNPPCAFDLDDPSCDKTPLSTLAIVALGTGITFIMFGVSSFLIFRKLMLEKELASMLWRIRWEELQFGNSERYHKGAGSRLTLSLRGSSYGSLMTAHGKYQIFANTGHFKGNVVAIKHVNKKRIELTRQVLFELKHMRDVQFNHLTRFIGACIDPPNICIVTEYCPRGSLQDILENDSINLDWMFRYSLINDLVKGMAFLHNSIISSHGSLKSSNCVVDSRFVLKITDYGLASFRSTAEPDDSHALYAKKLWTAPELLSGNPLPTTGMQKADVYSFGIILQEIALRSGPFYLEGLDLSPKEIVQKVRNGQRPYFRPSIDRTQLNEELVLLMERCWAQDPAERPDFGQIKGFIRRFNKEGGTSILDNLLLRMEQYANNLEKLVEERTQAYLEEKRKAEALLYQILPHSVAEQLKRGETVQAEAFDSVTIYFSDIVGFTALSAESTPMQVVTLLNDLYTCFDAIIDNFDVYKVETIGDAYMVVSGLPGRNGQRHAPEIARMALALLDAVSSFRIRHRPHDQLRLCIGVHTGPVCAGVVGLKMPRYCLFGDTVNTASRMESNGQALKIHVSSTTKDALDELGCFQLELRGDVEMKGKGKMRTYWLLGERKGPPGLL",0.01553 and 0.02954,LoF
"Leu956Gln: NPR2 protein-altering variant, expression construct transfected into HEK293 cells (protein) RNLTLAVVLPEHNLSYAWAWPRVGPAVALAVEALGRALPVDLRFVSSELEGACSEYLAPLSAVDLKLYHDPDLLLGPGCVYPAASVARFASHWRLPLLTAGAVASGFSAKNDHYRTLVRTGPSAPKLGEFVVTLHGHFNWTARAALLYLDARTDDRPHYFTIEGVFEALQGSNLSVQHQVYAREPGGPEQATHFIRANGRIVYICGPLEMLHEILLQAQRENLTNGDYVFFYLDVFGESLRAGPTRATGRPWQDNRTREQAQALREAFQTVLVITYREPPNPEYQEFQNRLLIRAREDFGVELGPSLMNLIAGCFYDGILLYAEVLNETIQEGGTREDGLRIVEKMQGRRYHGVTGLVVMDKNNDRETDFVLWAMGDLDSGDFQPAAHYSGAEKQIWWTGRPIPWVKGAPPSDNPPCAFDLDDPSCDKTPLSTLAIVALGTGITFIMFGVSSFLIFRKLMLEKELASMLWRIRWEELQFGNSERYHKGAGSRLTLSLRGSSYGSLMTAHGKYQIFANTGHFKGNVVAIKHVNKKRIELTRQVLFELKHMRDVQFNHLTRFIGACIDPPNICIVTEYCPRGSLQDILENDSINLDWMFRYSLINDLVKGMAFLHNSIISSHGSLKSSNCVVDSRFVLKITDYGLASFRSTAEPDDSHALYAKKLWTAPELLSGNPLPTTGMQKADVYSFGIILQEIALRSGPFYLEGLDLSPKEIVQKVRNGQRPYFRPSIDRTQLNEELVLLMERCWAQDPAERPDFGQIKGFIRRFNKEGGTSILDNLLLRMEQYANNLEKLVEERTQAYLEEKRKAEALLYQILPHSVAEQLKRGETVQAEAFDSVTIYFSDIVGFTALSAESTPMQVVTLLNDLYTCFDAIIDNFDVYKVETIGDAYMVVSGLPGRNGQRHAPEIARMALALLDAVSSFRIRHRPHDQLRQRIGVHTGPVCAGVVGLKMPRYCLFGDTVNTASRMESNGQALKIHVSSTTKDALDELGCFQLELRGDVEMKGKGKMRTYWLLGERKGPPGLL",0.02434,LoF
"Val965Asp: NPR2 protein-altering variant, expression construct transfected into HEK293 cells (protein) RNLTLAVVLPEHNLSYAWAWPRVGPAVALAVEALGRALPVDLRFVSSELEGACSEYLAPLSAVDLKLYHDPDLLLGPGCVYPAASVARFASHWRLPLLTAGAVASGFSAKNDHYRTLVRTGPSAPKLGEFVVTLHGHFNWTARAALLYLDARTDDRPHYFTIEGVFEALQGSNLSVQHQVYAREPGGPEQATHFIRANGRIVYICGPLEMLHEILLQAQRENLTNGDYVFFYLDVFGESLRAGPTRATGRPWQDNRTREQAQALREAFQTVLVITYREPPNPEYQEFQNRLLIRAREDFGVELGPSLMNLIAGCFYDGILLYAEVLNETIQEGGTREDGLRIVEKMQGRRYHGVTGLVVMDKNNDRETDFVLWAMGDLDSGDFQPAAHYSGAEKQIWWTGRPIPWVKGAPPSDNPPCAFDLDDPSCDKTPLSTLAIVALGTGITFIMFGVSSFLIFRKLMLEKELASMLWRIRWEELQFGNSERYHKGAGSRLTLSLRGSSYGSLMTAHGKYQIFANTGHFKGNVVAIKHVNKKRIELTRQVLFELKHMRDVQFNHLTRFIGACIDPPNICIVTEYCPRGSLQDILENDSINLDWMFRYSLINDLVKGMAFLHNSIISSHGSLKSSNCVVDSRFVLKITDYGLASFRSTAEPDDSHALYAKKLWTAPELLSGNPLPTTGMQKADVYSFGIILQEIALRSGPFYLEGLDLSPKEIVQKVRNGQRPYFRPSIDRTQLNEELVLLMERCWAQDPAERPDFGQIKGFIRRFNKEGGTSILDNLLLRMEQYANNLEKLVEERTQAYLEEKRKAEALLYQILPHSVAEQLKRGETVQAEAFDSVTIYFSDIVGFTALSAESTPMQVVTLLNDLYTCFDAIIDNFDVYKVETIGDAYMVVSGLPGRNGQRHAPEIARMALALLDAVSSFRIRHRPHDQLRLRIGVHTGPDCAGVVGLKMPRYCLFGDTVNTASRMESNGQALKIHVSSTTKDALDELGCFQLELRGDVEMKGKGKMRTYWLLGERKGPPGLL",0.0158,LoF
"Gly917Arg: NPR2 protein-altering variant, expression construct transfected into HEK293 cells (protein) RNLTLAVVLPEHNLSYAWAWPRVGPAVALAVEALGRALPVDLRFVSSELEGACSEYLAPLSAVDLKLYHDPDLLLGPGCVYPAASVARFASHWRLPLLTAGAVASGFSAKNDHYRTLVRTGPSAPKLGEFVVTLHGHFNWTARAALLYLDARTDDRPHYFTIEGVFEALQGSNLSVQHQVYAREPGGPEQATHFIRANGRIVYICGPLEMLHEILLQAQRENLTNGDYVFFYLDVFGESLRAGPTRATGRPWQDNRTREQAQALREAFQTVLVITYREPPNPEYQEFQNRLLIRAREDFGVELGPSLMNLIAGCFYDGILLYAEVLNETIQEGGTREDGLRIVEKMQGRRYHGVTGLVVMDKNNDRETDFVLWAMGDLDSGDFQPAAHYSGAEKQIWWTGRPIPWVKGAPPSDNPPCAFDLDDPSCDKTPLSTLAIVALGTGITFIMFGVSSFLIFRKLMLEKELASMLWRIRWEELQFGNSERYHKGAGSRLTLSLRGSSYGSLMTAHGKYQIFANTGHFKGNVVAIKHVNKKRIELTRQVLFELKHMRDVQFNHLTRFIGACIDPPNICIVTEYCPRGSLQDILENDSINLDWMFRYSLINDLVKGMAFLHNSIISSHGSLKSSNCVVDSRFVLKITDYGLASFRSTAEPDDSHALYAKKLWTAPELLSGNPLPTTGMQKADVYSFGIILQEIALRSGPFYLEGLDLSPKEIVQKVRNGQRPYFRPSIDRTQLNEELVLLMERCWAQDPAERPDFGQIKGFIRRFNKEGGTSILDNLLLRMEQYANNLEKLVEERTQAYLEEKRKAEALLYQILPHSVAEQLKRGETVQAEAFDSVTIYFSDIVGFTALSAESTPMQVVTLLNDLYTCFDAIIDNFDVYKVETIGDAYMVVSRLPGRNGQRHAPEIARMALALLDAVSSFRIRHRPHDQLRLRIGVHTGPVCAGVVGLKMPRYCLFGDTVNTASRMESNGQALKIHVSSTTKDALDELGCFQLELRGDVEMKGKGKMRTYWLLGERKGPPGLL",0.01708,LoF
